Results as given in patent US20260217779.

Key:
[1] = biological target: T1, hCXCL11.0033-G1T4k.one//VHn-G1T4h.one.H435R
T1 chain 1: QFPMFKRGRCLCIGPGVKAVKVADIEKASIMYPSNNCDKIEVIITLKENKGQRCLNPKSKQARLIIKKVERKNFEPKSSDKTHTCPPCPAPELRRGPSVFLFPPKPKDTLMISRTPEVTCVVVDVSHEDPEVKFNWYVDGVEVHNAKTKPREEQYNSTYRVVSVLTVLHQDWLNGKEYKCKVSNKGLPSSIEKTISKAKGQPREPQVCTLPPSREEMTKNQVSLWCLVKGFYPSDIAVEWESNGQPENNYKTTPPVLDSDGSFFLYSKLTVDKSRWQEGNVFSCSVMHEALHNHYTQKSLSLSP
T1 chain 2: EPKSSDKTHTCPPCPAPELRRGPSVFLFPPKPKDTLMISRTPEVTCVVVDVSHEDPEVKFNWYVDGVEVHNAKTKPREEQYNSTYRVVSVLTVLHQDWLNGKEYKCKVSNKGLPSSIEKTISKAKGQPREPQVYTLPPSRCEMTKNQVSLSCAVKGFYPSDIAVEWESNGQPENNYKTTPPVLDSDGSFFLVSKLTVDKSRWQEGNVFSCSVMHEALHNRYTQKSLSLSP

[2] = biological target: T2, hCXCL11.0035-G1T4k.one//VHn-G1T4h.one.H435R
T2 chain 1: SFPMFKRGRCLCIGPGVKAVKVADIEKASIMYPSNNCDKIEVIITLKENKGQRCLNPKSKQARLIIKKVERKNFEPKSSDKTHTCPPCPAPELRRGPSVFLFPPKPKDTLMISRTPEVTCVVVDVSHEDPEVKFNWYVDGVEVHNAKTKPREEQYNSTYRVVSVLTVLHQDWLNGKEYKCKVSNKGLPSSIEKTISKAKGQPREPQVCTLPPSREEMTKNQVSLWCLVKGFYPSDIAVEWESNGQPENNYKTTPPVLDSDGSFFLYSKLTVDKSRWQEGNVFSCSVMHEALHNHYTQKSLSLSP
T2 chain 2: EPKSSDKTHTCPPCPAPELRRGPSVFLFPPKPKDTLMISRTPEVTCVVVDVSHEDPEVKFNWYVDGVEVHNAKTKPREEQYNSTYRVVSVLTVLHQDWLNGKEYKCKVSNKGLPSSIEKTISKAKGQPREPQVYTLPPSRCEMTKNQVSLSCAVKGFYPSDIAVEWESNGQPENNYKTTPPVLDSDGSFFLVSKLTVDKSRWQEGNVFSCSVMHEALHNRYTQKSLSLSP

[3] = biological target: T3, hITIP0025-G1T4k.one//VHn-G1T4h.one.H435R
T3 chain 1: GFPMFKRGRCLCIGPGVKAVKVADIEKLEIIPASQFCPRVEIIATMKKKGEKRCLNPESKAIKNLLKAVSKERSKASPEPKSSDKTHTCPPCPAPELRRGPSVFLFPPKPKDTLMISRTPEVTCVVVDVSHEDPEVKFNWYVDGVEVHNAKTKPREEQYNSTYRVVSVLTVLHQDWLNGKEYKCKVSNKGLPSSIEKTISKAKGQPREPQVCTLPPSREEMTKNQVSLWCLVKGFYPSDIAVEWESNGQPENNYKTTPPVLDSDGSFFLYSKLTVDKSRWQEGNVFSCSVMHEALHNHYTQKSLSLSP
T3 chain 2: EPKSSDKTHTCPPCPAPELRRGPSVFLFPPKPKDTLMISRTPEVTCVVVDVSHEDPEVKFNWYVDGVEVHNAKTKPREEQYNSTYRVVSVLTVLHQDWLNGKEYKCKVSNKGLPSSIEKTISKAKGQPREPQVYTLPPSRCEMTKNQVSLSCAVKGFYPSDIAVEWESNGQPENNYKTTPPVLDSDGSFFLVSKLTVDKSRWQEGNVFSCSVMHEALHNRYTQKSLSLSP

[4] = biological target: T4, hITIP0031-G1T4k.one//VHn-G1T4h.one.H435R
T4 chain 1: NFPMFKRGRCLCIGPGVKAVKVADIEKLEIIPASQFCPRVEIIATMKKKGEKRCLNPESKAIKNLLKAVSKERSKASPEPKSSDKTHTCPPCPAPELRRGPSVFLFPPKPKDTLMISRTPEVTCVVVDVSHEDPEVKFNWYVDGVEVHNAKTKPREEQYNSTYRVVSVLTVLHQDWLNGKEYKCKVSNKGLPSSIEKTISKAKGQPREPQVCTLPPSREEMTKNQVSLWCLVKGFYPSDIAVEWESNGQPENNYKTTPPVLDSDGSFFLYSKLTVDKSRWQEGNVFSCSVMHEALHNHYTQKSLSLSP
T4 chain 2: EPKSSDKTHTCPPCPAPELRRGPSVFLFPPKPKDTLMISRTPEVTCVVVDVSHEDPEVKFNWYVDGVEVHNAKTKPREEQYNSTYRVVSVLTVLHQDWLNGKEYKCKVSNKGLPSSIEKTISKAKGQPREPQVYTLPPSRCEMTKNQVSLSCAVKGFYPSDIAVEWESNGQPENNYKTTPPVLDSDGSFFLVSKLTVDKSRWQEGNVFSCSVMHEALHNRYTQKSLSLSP

[5] = biological target: T5, hCXCL11.0031-G1T4k.one//VHn-G1T4h.one.H435R
T5 chain 1: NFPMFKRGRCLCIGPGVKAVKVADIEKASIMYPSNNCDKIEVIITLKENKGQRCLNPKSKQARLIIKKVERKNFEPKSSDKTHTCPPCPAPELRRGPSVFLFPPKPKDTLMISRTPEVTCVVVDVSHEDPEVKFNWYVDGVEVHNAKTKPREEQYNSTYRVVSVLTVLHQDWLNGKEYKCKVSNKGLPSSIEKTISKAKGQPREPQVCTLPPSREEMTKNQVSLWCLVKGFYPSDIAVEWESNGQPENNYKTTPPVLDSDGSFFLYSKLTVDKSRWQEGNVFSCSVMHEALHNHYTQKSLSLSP
T5 chain 2: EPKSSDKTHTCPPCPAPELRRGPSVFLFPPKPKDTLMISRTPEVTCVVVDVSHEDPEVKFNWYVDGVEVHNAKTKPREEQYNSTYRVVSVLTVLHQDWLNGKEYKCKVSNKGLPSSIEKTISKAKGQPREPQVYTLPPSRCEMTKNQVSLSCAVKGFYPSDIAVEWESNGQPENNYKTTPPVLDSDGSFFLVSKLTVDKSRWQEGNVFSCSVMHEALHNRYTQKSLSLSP

[6] = biological target: T6, hITIP-G1T4k.one//VHn-G1T4h.one.H435R
T6 chain 1: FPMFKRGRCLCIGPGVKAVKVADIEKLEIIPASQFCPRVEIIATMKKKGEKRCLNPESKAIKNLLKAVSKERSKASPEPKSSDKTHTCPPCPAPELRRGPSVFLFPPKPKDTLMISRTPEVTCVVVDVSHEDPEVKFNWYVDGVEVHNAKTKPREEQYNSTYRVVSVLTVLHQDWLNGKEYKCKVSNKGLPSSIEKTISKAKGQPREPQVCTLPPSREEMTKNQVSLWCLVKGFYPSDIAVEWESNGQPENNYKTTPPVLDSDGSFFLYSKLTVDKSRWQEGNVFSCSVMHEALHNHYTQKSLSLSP
T6 chain 2: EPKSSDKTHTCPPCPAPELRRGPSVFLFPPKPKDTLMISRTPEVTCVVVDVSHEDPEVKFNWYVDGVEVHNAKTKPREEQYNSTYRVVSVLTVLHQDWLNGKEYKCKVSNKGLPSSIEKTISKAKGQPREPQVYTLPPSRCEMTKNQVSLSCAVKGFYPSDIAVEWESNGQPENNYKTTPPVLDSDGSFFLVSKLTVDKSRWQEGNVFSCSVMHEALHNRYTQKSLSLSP

[7] = biological target: T7, hCXCL11.0030-G1T4k.one//VHn-G1T4h.one.H435R
T7 chain 1: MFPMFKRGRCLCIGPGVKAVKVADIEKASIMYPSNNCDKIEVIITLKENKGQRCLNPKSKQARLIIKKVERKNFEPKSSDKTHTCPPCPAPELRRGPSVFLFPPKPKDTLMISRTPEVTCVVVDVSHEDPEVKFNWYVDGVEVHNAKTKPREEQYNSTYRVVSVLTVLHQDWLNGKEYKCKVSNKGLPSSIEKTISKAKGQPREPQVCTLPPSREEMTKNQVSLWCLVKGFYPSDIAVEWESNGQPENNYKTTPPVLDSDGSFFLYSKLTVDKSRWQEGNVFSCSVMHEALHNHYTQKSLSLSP
T7 chain 2: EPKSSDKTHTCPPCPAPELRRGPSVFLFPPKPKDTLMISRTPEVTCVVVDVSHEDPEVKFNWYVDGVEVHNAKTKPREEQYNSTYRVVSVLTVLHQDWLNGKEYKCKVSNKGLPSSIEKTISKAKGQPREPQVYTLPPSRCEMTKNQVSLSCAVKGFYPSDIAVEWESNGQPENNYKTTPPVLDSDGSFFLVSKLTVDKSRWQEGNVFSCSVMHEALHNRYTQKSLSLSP

[8] = biological target: T8, hITIP0035-G1T4k.one//VHn-G1T4h.one.H435R
T8 chain 1: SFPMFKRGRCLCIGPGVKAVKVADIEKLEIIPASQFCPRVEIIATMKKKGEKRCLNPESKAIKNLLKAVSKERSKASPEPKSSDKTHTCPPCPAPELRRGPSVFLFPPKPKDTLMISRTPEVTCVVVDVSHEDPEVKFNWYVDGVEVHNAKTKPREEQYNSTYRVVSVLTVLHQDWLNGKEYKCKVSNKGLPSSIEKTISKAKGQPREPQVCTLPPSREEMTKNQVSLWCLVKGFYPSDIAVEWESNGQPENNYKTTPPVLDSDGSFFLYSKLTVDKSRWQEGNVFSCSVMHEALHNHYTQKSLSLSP
T8 chain 2: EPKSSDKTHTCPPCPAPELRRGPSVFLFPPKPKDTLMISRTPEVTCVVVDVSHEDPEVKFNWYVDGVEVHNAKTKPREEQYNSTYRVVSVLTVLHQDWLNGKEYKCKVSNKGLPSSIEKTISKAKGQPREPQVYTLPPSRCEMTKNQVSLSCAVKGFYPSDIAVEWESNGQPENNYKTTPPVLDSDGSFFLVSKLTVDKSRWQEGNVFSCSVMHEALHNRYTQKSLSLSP

B1: human dipeptidyl peptidase IV (human DPPIV, hDPPIV) (Biolegend, 764102) (protein)
chain: NKGTDDATADSRKTYTLTDYLKNTYRLKLYSLRWISDHEYLYKQENNILVFNAEYGNSSVFLENSTFDEFGHSINDYSISPDGQFILLEYNYVKQWRHSYTASYDIYDLNKRQLITEERIPNNTQWVTWSPVGHKLAYVWNNDIYVKIEPNLPSYRITWTGKEDIIYNGITDWVYEEEVFSAYSALWWSPNGTFLAYAQFNDTEVPLIEYSFYSDESLQYPKTVRVPYPKAGAVNPTVKFFVVNTDSLSSVTNATSIQITAPASMLIGDHYLCDVTWATQERISLQWLRRIQNYSVMDICDYDESSGRWNCLVARQHIEMSTTGWVGRFRPSEPHFTLDGNSFYKIISNEEGYRHICYFQIDKKDCTFITKGTWEVIGIEALTSDYLYYISNEYKGMPGGRNLYKIQLSDYTKVTCLSCELNPERCQYYSVSFSKEAKYYQLRCSGPGLPLYTLHSSVNDKGLRVLEDNSALDKMLQNVQMPSKKLDFIILNETKFWYQMILPPHFDKSKKYPLLLDVYAGPCSQKADTVFRLNWATYLASTENIIVASFDGRGSGYQGDKIMHAINRRLGTFEVEDQIEAARQFSKMGFVDNKRIAIWGWSYGGYVTSMVLGSGSGVFKCGIAVAPVSRWEYYDSVYTERYMGLPTPEDNLDHYRNSTVMSRAENFKQVEYLLIHGTADDNVHFQQSAQISKALVDVGVDFQAMWYTDEDHGIASSTAHQHIYTHMSHFIKQCFSLP
cleavage by hDPPIV (LC/MS mass) [1]: showed no mass change suggestive of peptide bond cleavage by hDPPIV treatment
cleavage by hDPPIV (LC/MS mass) [2]: showed no mass change suggestive of peptide bond cleavage by hDPPIV treatment
cleavage by hDPPIV (LC/MS mass) [3]: showed no mass change suggestive of peptide bond cleavage by hDPPIV treatment
cleavage by hDPPIV (LC/MS mass) [4]: showed no mass change suggestive of peptide bond cleavage by hDPPIV treatment
cleavage by hDPPIV (LC/MS mass) [5]: showed no mass change suggestive of peptide bond cleavage by hDPPIV treatment
cleavage by hDPPIV (LC/MS mass) [6]: DPPIV treatment reduced each of the masses
cleavage by hDPPIV (LC/MS mass) [7]: showed no mass change suggestive of peptide bond cleavage by hDPPIV treatment
cleavage by hDPPIV (LC/MS mass) [8]: showed no mass change suggestive of peptide bond cleavage by hDPPIV treatment
